Reference: patent publication US20200247856A1

Assays:
[1] = molecular target: T1, Myostatin (R&D Systems, Catalogue number 788-G8-010/CF) (UniProt O14793); assay: cell-based or functional assay
T1 sequence (looked up): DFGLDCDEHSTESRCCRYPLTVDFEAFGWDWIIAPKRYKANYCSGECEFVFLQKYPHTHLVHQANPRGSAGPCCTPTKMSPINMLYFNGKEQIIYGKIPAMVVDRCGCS

[2] = molecular target: Activin A (R&D Systems, Catalog number 338-AC-050 CF) (UniProt P08476); assay: cell-based or functional assay
[3] = molecular target: T1, Myostatin (R&D Systems, Catalogue number 788-G8-010/CF); assay: BIAcore SPR; fusion captured on anti-human Fc; myostatin as analyte (5-0.31 nM)
[4] = molecular target: Fc Gamma Receptor RIA (R&D Systems, Catalog #1257-FC-050) (UniProt P12314); assay: SPR; fusion immobilised on CM5 chip; Fc gamma receptor IA as analyte (62.5-0.49 nM)
[5] = molecular target: Activin A (R&D Systems, Catalog number 338-AC-050 CF) (UniProt P08476); assay: BIAcore SPR; fusion captured on anti-human Fc; activin A as analyte (2.5-0.15 nM); upper end of the printed range 1-2 pM; fusion captured on anti-human Fc, activin A tested 2.5-0.15 nM
[6] = molecular target: FcRn receptor; assay: FcRn binding, 'standard methods'
[7] = molecular target: Activin A (R&D Systems, Catalog number 338-AC-050 CF) (UniProt P08476); assay: BIAcore SPR; fusion captured on anti-human Fc; activin A as analyte (2.5-0.15 nM); lower end of the printed range 1-2 pM; fusion captured on anti-human Fc, activin A tested 2.5-0.15 nM

Activin A (R&D Systems, Catalog number 338-AC-050 CF), sequence (P08476 311-426): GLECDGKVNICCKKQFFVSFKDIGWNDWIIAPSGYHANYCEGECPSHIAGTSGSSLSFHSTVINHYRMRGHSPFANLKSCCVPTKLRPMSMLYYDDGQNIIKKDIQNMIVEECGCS
monoFS315K(76,81,82)E-hFcLALA (Fc fusion), sequence (chain): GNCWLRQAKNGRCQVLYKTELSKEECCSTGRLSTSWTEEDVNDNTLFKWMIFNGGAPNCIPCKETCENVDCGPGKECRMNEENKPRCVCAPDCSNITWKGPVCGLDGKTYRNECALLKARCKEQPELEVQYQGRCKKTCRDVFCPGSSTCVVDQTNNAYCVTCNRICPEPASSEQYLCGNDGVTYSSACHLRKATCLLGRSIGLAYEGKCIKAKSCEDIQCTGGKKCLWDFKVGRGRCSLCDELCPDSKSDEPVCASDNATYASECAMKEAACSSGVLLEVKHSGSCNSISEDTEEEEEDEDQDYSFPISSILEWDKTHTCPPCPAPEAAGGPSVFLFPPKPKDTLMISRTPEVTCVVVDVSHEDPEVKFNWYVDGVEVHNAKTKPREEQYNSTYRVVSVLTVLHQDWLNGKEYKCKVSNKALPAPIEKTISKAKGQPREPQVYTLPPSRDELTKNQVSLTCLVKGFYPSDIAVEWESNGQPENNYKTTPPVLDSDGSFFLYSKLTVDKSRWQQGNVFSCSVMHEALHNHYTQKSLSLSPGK
Fc Gamma Receptor RIA (R&D Systems, Catalog #1257-FC-050), sequence (P12314 16-288 limits assumed): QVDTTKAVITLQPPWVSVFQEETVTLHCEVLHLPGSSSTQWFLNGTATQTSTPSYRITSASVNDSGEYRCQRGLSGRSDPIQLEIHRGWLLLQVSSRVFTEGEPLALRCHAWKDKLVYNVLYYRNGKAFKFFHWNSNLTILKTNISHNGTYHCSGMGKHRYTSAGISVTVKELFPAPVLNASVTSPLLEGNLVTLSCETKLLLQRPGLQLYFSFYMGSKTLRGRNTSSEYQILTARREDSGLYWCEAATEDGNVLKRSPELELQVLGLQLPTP

Substance	Myostatin IC50 (nM), luciferase gene reporter assay (Smad3, A204 cells) [1]	Activin A IC50 (nM), luciferase gene reporter assay (Smad3, A204 cells) [2]	Kd [3]	Kd [4]	Kd [5]	Kd [6]	Kd [7]
FS315K(81,82,84)E-hFcLALA (Fc fusion)	0.4 nM	1 nM					
FS315WT-hFc (from UniProt P19883 30-344) (Fc fusion)	0.4 nM	0.7 nM	6 to 10 pM	140 pM	1 to 2 pM	114000 pM	1 to 2 pM

Further lines, results first:

Myostatin IC50 (nM), luciferase gene reporter assay (Smad3, A204 cells) [1]	Activin A IC50 (nM), luciferase gene reporter assay (Smad3, A204 cells) [2]	Kd [3]	Kd [4]	Kd [5]	Kd [6]	Kd [7]	Substance
0.4 nM							FS315ΔHBS-hFcLALA (Fc fusion)
		< 4 pM			40600 pM		monoFS315K(76,81,82)E-hFcLALA (Fc fusion)
		2.89 pM			12800 pM		monoFS315wt-hFcLALA (Fc fusion)
